T1: co-expressed Kae1-Pcc1 subcomplex (2Kae1:2Pcc1) (Saccharolobus islandicus REY15A, UniProt F0NFC9 1-331; F0NF65 1-91)
T1 sequence (looked up) 1: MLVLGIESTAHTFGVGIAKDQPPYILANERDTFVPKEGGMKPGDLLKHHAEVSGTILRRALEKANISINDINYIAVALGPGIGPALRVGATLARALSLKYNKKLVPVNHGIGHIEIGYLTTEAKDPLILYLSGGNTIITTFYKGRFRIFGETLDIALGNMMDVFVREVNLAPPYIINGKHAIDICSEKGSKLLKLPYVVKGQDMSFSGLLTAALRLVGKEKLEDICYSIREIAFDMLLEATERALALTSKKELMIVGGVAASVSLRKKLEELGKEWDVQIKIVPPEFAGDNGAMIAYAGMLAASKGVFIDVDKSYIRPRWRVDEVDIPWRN
T1 sequence (looked up) 2: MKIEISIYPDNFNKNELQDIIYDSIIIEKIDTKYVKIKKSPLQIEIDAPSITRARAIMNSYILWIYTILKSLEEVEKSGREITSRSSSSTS

T2: His-Pcc1 co-expressed with no-tagged SisKae1 (Saccharolobus islandicus REY15A, UniProt F0NF65 1-91)
T2 sequence (looked up): T1 sequence (looked up) 2

B1: His-SisPcc1-like (natural protein, Saccharolobus islandicus REY15A, UniProt F0NIH8 1-81, looked up)
chain: MIELRILSEHEDAELIIRSLNVDNVNLPEGMSIQTKVEGKELEIVIKMRITKPNDLMTVRNTADEILAHIKALQSSFDAIS
B2: no-tagged SisKae1 (enzyme, Saccharolobus islandicus REY15A, UniProt F0NFC9 1-331, looked up)
chain: T1 sequence (looked up) 1

Experiments:
Assay in all cases: SEC
[1] = target: Flag-tagged SisKae1 co-expressed with His-tagged SisPcc1-like (Saccharolobus islandicus REY15A)
[2] = target: B2
[3] = target: T1, co-expressed Kae1-Pcc1 subcomplex …
[4] = target: T2, His-Pcc1 co-expressed with no-tagged …

| Binder | stoichiometry N (Pcc1-like per Kae1) [1] | stoichiometry N [2] | stoichiometry N [3] | stoichiometry N [4] |
| --- | --- | --- | --- | --- |
| B1 | 2 | 1 Kae1:Pcc1-like (1:1) | 1 Kae1:Pcc1:Pcc1-like (1:1:1) |  |
| B2 |  |  |  | 1 Kae1:Pcc1 (2:2) |

Source: article doi:10.1101/2022.08.26.505501 (bioRxiv, 2022)
